Laboratory results taken from patent US20180185467A1 (Harvard, published 2018).

Target: T1, GST-NS3 of YFV (strain 17D) (Yellow Fever virus, strain 17D, UniProt P03314 1485-2107)
T1 construct: domain: NS3; also called YFV NS3; NS3 of Yellow Fever virus
T1 sequence: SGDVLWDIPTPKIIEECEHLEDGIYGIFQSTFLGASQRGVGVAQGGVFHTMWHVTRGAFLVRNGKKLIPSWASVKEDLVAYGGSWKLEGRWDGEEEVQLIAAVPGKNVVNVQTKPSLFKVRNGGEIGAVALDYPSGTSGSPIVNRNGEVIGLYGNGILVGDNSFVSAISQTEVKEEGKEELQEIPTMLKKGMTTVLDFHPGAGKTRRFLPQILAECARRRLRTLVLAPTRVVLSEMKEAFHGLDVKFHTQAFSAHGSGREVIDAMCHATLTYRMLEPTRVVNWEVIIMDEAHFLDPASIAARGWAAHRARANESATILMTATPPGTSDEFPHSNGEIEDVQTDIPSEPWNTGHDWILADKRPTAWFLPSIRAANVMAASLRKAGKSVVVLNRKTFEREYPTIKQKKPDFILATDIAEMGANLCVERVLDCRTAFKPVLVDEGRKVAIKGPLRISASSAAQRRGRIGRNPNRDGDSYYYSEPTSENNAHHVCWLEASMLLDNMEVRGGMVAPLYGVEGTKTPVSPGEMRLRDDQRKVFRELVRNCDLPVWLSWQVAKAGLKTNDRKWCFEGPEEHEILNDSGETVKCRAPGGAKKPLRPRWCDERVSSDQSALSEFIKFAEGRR
Test: GST pull-down in 293T cells, immunoblot with anti-14-3-3ε

B1: endogenous 14-3-3ε (other)
chain: MDDREDLVYQAKLAEQAERYDEMVESMKKVAGMDVELTVEERNLLSVAYKNVIGARRASWRIISSIEQKEENKGGEDKLKMIREYRQMVETELKLICCDILDVLDKHLIPAANTGESKVFYYKMKGDYHRYLAEFATGNDRKEAAENSLVAYKAASDIAMTELPPTHPIRLGLALNFSVFYYEILNSPDRACRLAKAAFDDAIAELDTLSEESYKDSTLIMQLLRDNLTLWTSDMQGDGEEQNKEALQDVEDENQ
binding result: no binding
